US20090035818A1

Key:
[1] = target: asialotransferrin (human) (UniProt P02787); assay: SPR, asialotransferrin on CM5 chip, lectin as analyte
[2] = target: chicken egg yolk antibody (chicken IgY antibody) (chicken); assay: SPR (Biacore 2000), chicken IgY on CM5 chip, lectin as analyte

Chain of asialotransferrin (human) (P02787 20-698 limits assumed): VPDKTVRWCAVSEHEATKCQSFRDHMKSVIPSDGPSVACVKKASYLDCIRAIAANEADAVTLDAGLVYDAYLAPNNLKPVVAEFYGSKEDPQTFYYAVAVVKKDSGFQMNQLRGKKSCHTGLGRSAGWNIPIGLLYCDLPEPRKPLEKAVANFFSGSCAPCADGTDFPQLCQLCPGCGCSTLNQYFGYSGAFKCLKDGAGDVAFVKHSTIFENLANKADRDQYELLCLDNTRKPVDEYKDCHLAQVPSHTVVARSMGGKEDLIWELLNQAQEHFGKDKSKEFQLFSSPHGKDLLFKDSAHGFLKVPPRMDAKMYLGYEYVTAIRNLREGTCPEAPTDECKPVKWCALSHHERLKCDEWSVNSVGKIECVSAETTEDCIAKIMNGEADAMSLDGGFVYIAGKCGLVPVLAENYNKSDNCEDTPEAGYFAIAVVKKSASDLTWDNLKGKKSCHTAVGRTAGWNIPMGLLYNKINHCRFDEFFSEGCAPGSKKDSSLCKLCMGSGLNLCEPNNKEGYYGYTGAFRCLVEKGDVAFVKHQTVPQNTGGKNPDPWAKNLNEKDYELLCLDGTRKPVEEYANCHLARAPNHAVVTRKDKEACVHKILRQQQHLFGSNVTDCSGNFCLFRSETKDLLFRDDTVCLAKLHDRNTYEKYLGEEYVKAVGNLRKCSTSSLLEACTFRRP

Row | Substance | Ka [1] [M⁻¹] | Ka [2] [M⁻¹] | Kd [2] [nM] | koff [2] [s⁻¹] | kon [2] [M⁻¹ s⁻¹]
1 | Carpopeltis flabellata-derived lectin Carnin | 1e+08 | 6.57e+07 | 15.2 | 0.00172 | 113000
2 | Hypnea japonica-derived lectin Hypnin A-1 |  | 7.1e+07 | 14.1 | 0.000298 | 21200
3 | Solieria robusta-derived lectin Solnin B |  | 2.88e+07 | 34.7 | 0.00564 | 162000
4 | Canavallia ensiformis-derived lectin Con A (from UniProt P02866 30-281) |  | 1.87e+07 | 53.4 | 2.49e-05 | 467
